Assay results: patent US20230250154A1

Target: Protease Mixtures
Experiment: cell-based or functional assay

Protease Inhibition (% of WT); Protease Mixtures, IGD Substrate	Protease Inhibition (% of WT); Protease Mixtures, Collagen Substrate	Binder
125 % of WT	–	Variant A2M, bait region SEQ ID NO 128, P01023 24-1474 (protein) SVSGKPQYMVLVPSLLHTETTEKGCVLLSYLNETVTVSASLESVRGNRSLFTDLEAENDVLHCVAFAVPKSSSNEEVMFLTVQVKGPTQEFKKRTTVMVKNEDSLVFVQTDKSIYKPGQTVKFRVVSMDENFHPLNELIPLVYIQDPKGNRIAQWQSFQLEGGLKQFSFPLSSEPFQGSYKVVVQKKSGGRTEHPFTVEEFVLPKFEVQVTVPKIITILEEEMNVSVCGLYTYGKPVPGHVTVSICRKYSDASDCHGEDSQAFCEKFSGQLNSHGCFYQQVKTKVFQLKRKEYEMKLHTEAQIQEEGTVVELTGRQSSEITRTITKLSFVKVDSHFRQGIPFFGQVRLVDGKGVPIPNKVIFIRGNEANYYSNATTDEHGLVQFSINTTNVMGTSLTVRVNYKDRSPCYGYQWVSEEHEEAHHTAYLVFSPSKSFVHLEPMSHELPCGHTQTVQAHYILNGGTLLGLKKLSFYYLIMAKGGIVRTGTHGLLVKQEDMKGHFSISIPVKSDIAPVARLLIYAVLPTGDVIGDSAKYDVENCLANKVDLSFSPSQSLPASHAHLRVTAAPQSVCALRAVDQSVLLMKPDAELSASSVYNLLPEKDLTGFPGPLNDQDDEDCINRHNVYINGITYTPVSSTNEKDMYSFLEDMGLKAFTNSKIRKPKMCPQLEQYEMHGPSELEGRGSEAIPMSIPTKEEEGLGSIPENFFGVVEEPHTKLRKYFPETWIWDLVVVNSAGVAEVGVTVPDTITEWKAGAFCLSEDAGLGISSTASLRAFQPFFVELTMPYSVIRGEAFTLKATVLNYLPKCIRVSVQLEASPAFLAVPVEKEQAPHCICANGRQTVSWAVTPKSLGNVNFTVSAEALESQELCGTEVPSVPEHGRKDTVIKPLLVEPEGLEKETTFNSLLCPSGGEVSEELSLKLPPNVVEESARASVSVLGDILGSAMQNTQNLLQMPYGCGEQNMVLFAPNIYVLDYLNETQQLTPEIKSKAIGYLNTGYQRQLNYKHYDGSYSTFGERYGRNQGNTWLTAFVLKTFAQARAYIFIDEAHITQALIWLSQRQKDNGCFRSSGSLLNNAIKGGVEDEVTLSAYITIALLEIPLTVTHPVVRNALFCLESAWKTAQEGDHGSHVYTKALLAYAFALAGNQDKRKEVLKSLNEEAVKKDNSVHWERPQKPKAPVGHFYEPQAPSAEVEMTSYVLLAYLTAQPAPTSEDLTSATNIVKWITKQQNAQGGFSSTQDTVVALHALSKYGAATFTRTGKAAQVTIQSSGTFSSKFQVDNNNRLLLQQVSLPELPGEYSMKVTGEGCVYLQTSLKYNILPEKEEFPFALGVQTLPQTCDEPKAHTSFQISLSVSYTGSRSASNMAIVDVKMVSGFIPLKPTVKMLERSNHVSRTEVSSNHVLIYLDKVSNQTLSLFFTVLQDVPVRDLKPAIVKVYDYYETDEFAIAEYNAPCSKDLGNADYKDDDDKGASHHHHHH
160 % of WT	–	Variant A2M, bait region SEQ ID NO 129, P01023 24-1474 (protein) SVSGKPQYMVLVPSLLHTETTEKGCVLLSYLNETVTVSASLESVRGNRSLFTDLEAENDVLHCVAFAVPKSSSNEEVMFLTVQVKGPTQEFKKRTTVMVKNEDSLVFVQTDKSIYKPGQTVKFRVVSMDENFHPLNELIPLVYIQDPKGNRIAQWQSFQLEGGLKQFSFPLSSEPFQGSYKVVVQKKSGGRTEHPFTVEEFVLPKFEVQVTVPKIITILEEEMNVSVCGLYTYGKPVPGHVTVSICRKYSDASDCHGEDSQAFCEKFSGQLNSHGCFYQQVKTKVFQLKRKEYEMKLHTEAQIQEEGTVVELTGRQSSEITRTITKLSFVKVDSHFRQGIPFFGQVRLVDGKGVPIPNKVIFIRGNEANYYSNATTDEHGLVQFSINTTNVMGTSLTVRVNYKDRSPCYGYQWVSEEHEEAHHTAYLVFSPSKSFVHLEPMSHELPCGHTQTVQAHYILNGGTLLGLKKLSFYYLIMAKGGIVRTGTHGLLVKQEDMKGHFSISIPVKSDIAPVARLLIYAVLPTGDVIGDSAKYDVENCLANKVDLSFSPSQSLPASHAHLRVTAAPQSVCALRAVDQSVLLMKPDAELSASSVYNLLPEKDLTGFPGPLNDQDDEDCINRHNVYINGITYTPVSSTNEKDMYSFLEDMGLKAFTNSKIRKPKMCPQLEQYEMHGPEAIPMSIPTEGEGEGEGIPENFFGVSEDLVVQIVEEPHTKLRKYFPETWIWDLVVVNSAGVAEVGVTVPDTITEWKAGAFCLSEDAGLGISSTASLRAFQPFFVELTMPYSVIRGEAFTLKATVLNYLPKCIRVSVQLEASPAFLAVPVEKEQAPHCICANGRQTVSWAVTPKSLGNVNFTVSAEALESQELCGTEVPSVPEHGRKDTVIKPLLVEPEGLEKETTFNSLLCPSGGEVSEELSLKLPPNVVEESARASVSVLGDILGSAMQNTQNLLQMPYGCGEQNMVLFAPNIYVLDYLNETQQLTPEIKSKAIGYLNTGYQRQLNYKHYDGSYSTFGERYGRNQGNTWLTAFVLKTFAQARAYIFIDEAHITQALIWLSQRQKDNGCFRSSGSLLNNAIKGGVEDEVTLSAYITIALLEIPLTVTHPVVRNALFCLESAWKTAQEGDHGSHVYTKALLAYAFALAGNQDKRKEVLKSLNEEAVKKDNSVHWERPQKPKAPVGHFYEPQAPSAEVEMTSYVLLAYLTAQPAPTSEDLTSATNIVKWITKQQNAQGGFSSTQDTVVALHALSKYGAATFTRTGKAAQVTIQSSGTFSSKFQVDNNNRLLLQQVSLPELPGEYSMKVTGEGCVYLQTSLKYNILPEKEEFPFALGVQTLPQTCDEPKAHTSFQISLSVSYTGSRSASNMAIVDVKMVSGFIPLKPTVKMLERSNHVSRTEVSSNHVLIYLDKVSNQTLSLFFTVLQDVPVRDLKPAIVKVYDYYETDEFAIAEYNAPCSKDLGNADYKDDDDKGASHHHHHH
243 % of WT	120 % of WT	Variant A2M, bait region SEQ ID NO 132, P01023 24-1474 (protein) SVSGKPQYMVLVPSLLHTETTEKGCVLLSYLNETVTVSASLESVRGNRSLFTDLEAENDVLHCVAFAVPKSSSNEEVMFLTVQVKGPTQEFKKRTTVMVKNEDSLVFVQTDKSIYKPGQTVKFRVVSMDENFHPLNELIPLVYIQDPKGNRIAQWQSFQLEGGLKQFSFPLSSEPFQGSYKVVVQKKSGGRTEHPFTVEEFVLPKFEVQVTVPKIITILEEEMNVSVCGLYTYGKPVPGHVTVSICRKYSDASDCHGEDSQAFCEKFSGQLNSHGCFYQQVKTKVFQLKRKEYEMKLHTEAQIQEEGTVVELTGRQSSEITRTITKLSFVKVDSHFRQGIPFFGQVRLVDGKGVPIPNKVIFIRGNEANYYSNATTDEHGLVQFSINTTNVMGTSLTVRVNYKDRSPCYGYQWVSEEHEEAHHTAYLVFSPSKSFVHLEPMSHELPCGHTQTVQAHYILNGGTLLGLKKLSFYYLIMAKGGIVRTGTHGLLVKQEDMKGHFSISIPVKSDIAPVARLLIYAVLPTGDVIGDSAKYDVENCLANKVDLSFSPSQSLPASHAHLRVTAAPQSVCALRAVDQSVLLMKPDAELSASSVYNLLPEKDLTGFPGPLNDQDDEDCINRHNVYINGITYTPVSSTNEKDMYSFLEDMGLKAFTNSKIRKPKMCPQLEQYEMHGPEGEGEGEGIPENFFGVSELEGRGSSEDLVVQIVEEPHTKLRKYFPETWIWDLVVVNSAGVAEVGVTVPDTITEWKAGAFCLSEDAGLGISSTASLRAFQPFFVELTMPYSVIRGEAFTLKATVLNYLPKCIRVSVQLEASPAFLAVPVEKEQAPHCICANGRQTVSWAVTPKSLGNVNFTVSAEALESQELCGTEVPSVPEHGRKDTVIKPLLVEPEGLEKETTFNSLLCPSGGEVSEELSLKLPPNVVEESARASVSVLGDILGSAMQNTQNLLQMPYGCGEQNMVLFAPNIYVLDYLNETQQLTPEIKSKAIGYLNTGYQRQLNYKHYDGSYSTFGERYGRNQGNTWLTAFVLKTFAQARAYIFIDEAHITQALIWLSQRQKDNGCFRSSGSLLNNAIKGGVEDEVTLSAYITIALLEIPLTVTHPVVRNALFCLESAWKTAQEGDHGSHVYTKALLAYAFALAGNQDKRKEVLKSLNEEAVKKDNSVHWERPQKPKAPVGHFYEPQAPSAEVEMTSYVLLAYLTAQPAPTSEDLTSATNIVKWITKQQNAQGGFSSTQDTVVALHALSKYGAATFTRTGKAAQVTIQSSGTFSSKFQVDNNNRLLLQQVSLPELPGEYSMKVTGEGCVYLQTSLKYNILPEKEEFPFALGVQTLPQTCDEPKAHTSFQISLSVSYTGSRSASNMAIVDVKMVSGFIPLKPTVKMLERSNHVSRTEVSSNHVLIYLDKVSNQTLSLFFTVLQDVPVRDLKPAIVKVYDYYETDEFAIAEYNAPCSKDLGNADYKDDDDKGASHHHHHH
150 % of WT	–	Variant A2M, bait region SEQ ID NO 131, P01023 24-1474 (protein) SVSGKPQYMVLVPSLLHTETTEKGCVLLSYLNETVTVSASLESVRGNRSLFTDLEAENDVLHCVAFAVPKSSSNEEVMFLTVQVKGPTQEFKKRTTVMVKNEDSLVFVQTDKSIYKPGQTVKFRVVSMDENFHPLNELIPLVYIQDPKGNRIAQWQSFQLEGGLKQFSFPLSSEPFQGSYKVVVQKKSGGRTEHPFTVEEFVLPKFEVQVTVPKIITILEEEMNVSVCGLYTYGKPVPGHVTVSICRKYSDASDCHGEDSQAFCEKFSGQLNSHGCFYQQVKTKVFQLKRKEYEMKLHTEAQIQEEGTVVELTGRQSSEITRTITKLSFVKVDSHFRQGIPFFGQVRLVDGKGVPIPNKVIFIRGNEANYYSNATTDEHGLVQFSINTTNVMGTSLTVRVNYKDRSPCYGYQWVSEEHEEAHHTAYLVFSPSKSFVHLEPMSHELPCGHTQTVQAHYILNGGTLLGLKKLSFYYLIMAKGGIVRTGTHGLLVKQEDMKGHFSISIPVKSDIAPVARLLIYAVLPTGDVIGDSAKYDVENCLANKVDLSFSPSQSLPASHAHLRVTAAPQSVCALRAVDQSVLLMKPDAELSASSVYNLLPEKDLTGFPGPLNDQDDEDCINRHNVYINGITYTPVSSTNEKDMYSFLEDMGLKAFTNSKIRKPKMCPQLEQYEMHGPEGEGEGEGISEDLVVQIPENFFGVKEEEGLGSVEEPHTKLRKYFPETWIWDLVVVNSAGVAEVGVTVPDTITEWKAGAFCLSEDAGLGISSTASLRAFQPFFVELTMPYSVIRGEAFTLKATVLNYLPKCIRVSVQLEASPAFLAVPVEKEQAPHCICANGRQTVSWAVTPKSLGNVNFTVSAEALESQELCGTEVPSVPEHGRKDTVIKPLLVEPEGLEKETTFNSLLCPSGGEVSEELSLKLPPNVVEESARASVSVLGDILGSAMQNTQNLLQMPYGCGEQNMVLFAPNIYVLDYLNETQQLTPEIKSKAIGYLNTGYQRQLNYKHYDGSYSTFGERYGRNQGNTWLTAFVLKTFAQARAYIFIDEAHITQALIWLSQRQKDNGCFRSSGSLLNNAIKGGVEDEVTLSAYITIALLEIPLTVTHPVVRNALFCLESAWKTAQEGDHGSHVYTKALLAYAFALAGNQDKRKEVLKSLNEEAVKKDNSVHWERPQKPKAPVGHFYEPQAPSAEVEMTSYVLLAYLTAQPAPTSEDLTSATNIVKWITKQQNAQGGFSSTQDTVVALHALSKYGAATFTRTGKAAQVTIQSSGTFSSKFQVDNNNRLLLQQVSLPELPGEYSMKVTGEGCVYLQTSLKYNILPEKEEFPFALGVQTLPQTCDEPKAHTSFQISLSVSYTGSRSASNMAIVDVKMVSGFIPLKPTVKMLERSNHVSRTEVSSNHVLIYLDKVSNQTLSLFFTVLQDVPVRDLKPAIVKVYDYYETDEFAIAEYNAPCSKDLGNADYKDDDDKGASHHHHHH
